From patent US9777300 (University of California, dated 2017)

Columns and labels:
[1] = molecular target: T1, E. coli FhuA, outer membrane iron transporter protein (E. coli, UniProt P06971 34-747); test: fluorescence microscopy, live E. coli cells expressing FhuA, 50 nM His-tagged pb5, detected with fluorescent anti-His antibody
T1 construct: whole, on cells; also called outer membrane iron-transporter (E. coli)
T1 sequence: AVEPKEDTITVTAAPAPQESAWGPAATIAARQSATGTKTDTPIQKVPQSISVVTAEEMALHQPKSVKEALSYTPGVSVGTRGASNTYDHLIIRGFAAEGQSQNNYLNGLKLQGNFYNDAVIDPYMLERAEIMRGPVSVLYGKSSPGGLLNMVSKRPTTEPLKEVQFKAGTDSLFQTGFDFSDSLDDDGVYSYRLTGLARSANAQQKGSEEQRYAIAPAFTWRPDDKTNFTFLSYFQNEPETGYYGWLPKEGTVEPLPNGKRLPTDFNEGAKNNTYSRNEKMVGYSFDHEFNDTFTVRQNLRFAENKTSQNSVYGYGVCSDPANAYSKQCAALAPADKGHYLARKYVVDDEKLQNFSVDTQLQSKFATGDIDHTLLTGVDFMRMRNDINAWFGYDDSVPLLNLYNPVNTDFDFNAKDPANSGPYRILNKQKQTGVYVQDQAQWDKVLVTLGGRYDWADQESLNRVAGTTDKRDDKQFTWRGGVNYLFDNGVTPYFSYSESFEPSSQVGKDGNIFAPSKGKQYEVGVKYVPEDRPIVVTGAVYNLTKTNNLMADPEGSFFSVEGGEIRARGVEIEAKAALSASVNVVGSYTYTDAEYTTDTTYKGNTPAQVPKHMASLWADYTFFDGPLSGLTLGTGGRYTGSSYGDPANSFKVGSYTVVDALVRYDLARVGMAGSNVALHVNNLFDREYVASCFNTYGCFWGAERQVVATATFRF

[2] = molecular target: T1, E. coli FhuA, outer membrane iron …; test: flow cytometry, FhuA on E. coli cells against FhuA on R. eutropha cells (FIG. 14E)
[3] = molecular target: T1, E. coli FhuA, outer membrane iron …; test: flow cytometry titration with 2.5 to 20 nM Qdot-pb5, FhuA on R. eutropha cells against FhuA on E. coli cells (FIG. 19)

B1: Bacteriophage T5 protein pb5 expressed in E. coli with a 6x-His tag (ligand)
chain: MSFFAGKLNNKSILSLRRGSGGDTNQHINPDSQTIFHSDMSHVIITETHSTGLRLDQGAGDYYWSEMPSRVTQLHNNDPNRVVLTEIEFSDGSRHMLSGMSMGVGAKAYGIINPQIMSQGGLKTQITASADLSLDVGYFNTGTSGTIPQKLRDGTGCQHMFGAFSGRRGFASSAMYLGGAALYKSAWSGSGYVVADAGTLTIPSDYVRHPGARNFGFNAIYVRGRSCNRVLYGMEGPNYTTGGAVQGASSSGALNFTYNPSNPESPKYSVGFARADPTNYAYWESMGDPNDSANGPIGIYSEHLGIYPSKITWYVTNLVYNGSGYNIDGGLFNGNDIKLSPREFIIKGVNVNNTSWKFINFIEKNFNVGNRADFRDVGCNLSKDSPSTGISGIATFGLPTTESNNAPSIKGGNVGGLHANVVSIYNFLPSASWYVSSNPPKIGNNYGDVWSENLLPLRLLGGSGSTILSGNIVFQGNGSVHVGTVGLDLNSSRNGAIVCTMEFIDDTWLSAGGIGCFNPTEMLSQGAEYGDSRFRIGGNTINKKLHQILSLPAGEYVPFFTIKGTVVNACKLQAAAYNPTPYWVSGLPGSVGQTGYYTLTYYMRNDGNNNISIWLDSSMSNIIGMKACLPNIKLIIQRLT
notes: it is placed C-terminal here only because of the label 'pb5-His'; also called pb5-His; His-pb5; not shown: 6x-His tag
- binding result [1]: binds

B2: Qdot-pb5 conjugate (CdSe/ZnS quantum dots conjugated to pb5 by carbodiimide coupling) (other)
chain: B1 chain
modifications: CdSe/ZnS quantum dot (Qdot) coupled by carbodiimide (EDC) chemistry; site of coupling and number of pb5 per Qdot not stated
notes: Two colours were used in the pulse labeling (Qdot532-pb5, Qdot602-pb5); the protein part is the same purified His-tagged pb5; also called Qdot-pb5s; Qdot532-pb5; not shown: 6x-His tag of the purified pb5
- fold binding efficiency, E. coli cells against R. eutropha cells [2]: ~3.4 fold
- fold lower total binding, R. eutropha cells against E. coli cells [3]: ~3.4 times lower
